Reference: the DeepSol protein solubility set

Assay: soluble on expression in E. coli; label from the status in PepcDB or PDB records

| Sequence | soluble on expression in E. coli |
| --- | --- |
| MGSDKIHHHHHHMLDKLWKKKNSMMVGIDIGSHSAKAVLLGQGNEGFIIEDFAIEPMPRGSVVDREIQDIEAVGAVIAKLRKKISAKATDAAAAVSGQTVITKLIYMDVALTEDELASQIEIEADSLIPFPLDEVSLDFETLDVNESDPSKVNVLLSAARTESIEARVAALDAGDFHAKVIDVESYAVGRAYDLCLTQLPDDAKDKVVAIVDIGSTVTLFSATDAGKHIYSRDQMFGGEQYTRSIVSYYNKSFEQAEEAKTSNDLPPNYTFEVLAPFHTVLMQQIRRAIQMFLTTSGQNKVDYLLISGGTAALEGIESLLTEELGIHTVIANPFNDMSCGESIEQAELANVAPQLMVATGLALRSFTPWHI | not soluble |
| MIRFLGNIEVRADAKGRVFIPATFRKQLQAASEERLIMRKDVFQDCLTLYPESVWNEELNELRSRLNKWNSKHQLIFRQFVSDVEVVTPDSNGRILIPKRYLQICNIRGDIRFIGIDNKIEIWAKERAEQPFMSPEEFGAALEEIMNDENRQDGER | not soluble |
| MLLTNHAKERIAKRLAKKRKIYKIYSTLFSFLKNSIRIEVEDTILFTDGNKTLVATKLDGELLDLGDIVKRVKDIEESYECVFWDKKIAKITKPIKFLQEIPPGKYYFYINKEKKVLYIGTHEPLLALTFRPAKRWERALFYFSLEHHHHHH | not soluble |
| KVKFTEEEDLKLQQLVMRYGAKDWIRISQLMITRNPRQCRERWNNYINPALRTDPWSPEEDMLLDQKYAEYGPKWNKISKFLKNRSDNNIRNRWMMIARHRAKHQKS | soluble |
| MRAPEESLREVLARFPQVQAAFLFGSRAEGRARADSDWDLALLLSPEEPDPTLEVLGALVEAGLERVDLVLLHRAPPLLAFLAVKGKPVFLREGFDLGSYVSRVAREWWDTEPLLRVQREALTLKRRWLDPS | soluble |
| MGSDKIHHHHHHMSLSRINIGSFRNITSASLQPCDGLNLIYGQNGSGKTSILEAIYFLGMGRSFRSHLSQRVINNDDDKLTLFAHLIDADRDCKIGLRRHRSGEIEVKIDGEKVKRLSTLAETLPIQVITPESFSLLFEGPKARRQFIDWGAFHSDPHFYQAWVNTRKVLKQRNQLLRNQSSYNQIQFWDKELVRYAEQVTDIRNQYVDSLNVLLKGIIGVFLPRIDIKVSFTRGWDSKTDFAQLLENQYSRDLAAGNTGSGPHKADLRLRVGNLPAQDALSRGQLKLLVCALRIAQGKLLKQQLDKNSIYLVDDLPSELDAQHRQLLLQLLTETGAQIFVTAIDPQAIVDSLSSPPNRMFHVEQGLVTVIE | not soluble |
| GPGSMADEEDYDFEVNKKETDKIERPERLIEVLQHDTNQTLTEEMVEHAQAVLDFMPVEYTYKDVAAKLKCRLDGAYGGTWHVIVGKHFGANVTNDDDTLINMKINGVYFLAMRSGPPERPQESAENEAVTAE | soluble |
| MPQITLSAEVQPEQMGQRLDQTLAELFPEYSRSRLKTWIEADLVKLNDRITNIPREKVLGGERIEIIVEVEDETRFEAENIPLNIVYEDDDIIVINKPKDLVVHPGAGNPNGTVLNALLYHYPPIVEVPRAGIVHRLDKDTTGLMVVAKTIPAQTKLVRDLQKRKITREYEAVASGIMTKGGTVDQPMARHATKRTLMAVHPMGKPAVTHYRIMENYRNYTRLRLRLETGRTHQIRVHMAHIAHPLLGDQTYGGRPRPPKNASEDFMEVLRNFKRQALHAVMLRLAHPITGEMMEWYAPLPDDFVELLNALKADYLEHQDELDY | soluble |
| MGSDKIHHHHHHMGNTINLSRFYKACNPSYTLNMGVMLDRQYYIDFANVRGCKIVEELQRTISRISPDEPTCQLFTGHIGCGKSTELQRLKTELETAGFHVVYFESSQDLDMADIDVSDILLSVARQVCVSLEAIGIKLKPGYFNNLFKEIGDFLQAPIELSGEAEFSLGIAKITAKTKDSTQLRNQLRQYLEPRTNNILQAINEEILEKAVEQLKRRGQKGLVVIVDNLDRVDMRPVASGRTQPEYLFIDRGEQLRRLKCHVVYTIPLALIFSSEYETLKNRLGGGIAPKVLPMVLVRQRDGSDYEPGMSLLRQLVLARAFPEVASQERQQLITELFEQTETLDRLCRVSGGHIRNLLGLLYSCLQRQDPPFSRDCLEAVIKDYRDDLLLAIDECQWELLFDVMQQQSVKGESDYQSLLRSMYLFEYRDPVGRWFGISPALAETEKVLAWRESK | not soluble |
| GPGSMPLTAAGMRTLMRQMQEVQEHPVDGVQVRPSDSMNEYHFDVDGPEGTPFAAGRFHVVLIFDEQYPEVPPKGFFRTKIFHPNISERGDICVNTLKRDWSPMLGLRHILVVIRCLLIEPNPESALNEEAGRLILEEYAAYERKAAMYTAINAARPNGVPRFTLPEVKAEKASGSVTACASAGAAADSGASATAAAAAASASSMANGGAPSTATRGLTLSEANCHPGSATAAEKAEKSKKKALRRI | soluble |
| MGSDKIHHHHHHMNTEHAAYQIADELGGLELLNAHYHKQNFSRHTHEGYTVGVIETGAQRFYRTGGNHVAPKHSIILVNADEVHNGCSATEGGWSYRAMYPVPAQFAGINSERAANSGAPYFPEPVVYDPELAELLRLTFTTLDTSDNRLLRESLVYSSLTQLMARHGKHRPSDNLAAMAKPALALVKSFIDDHPAADISLEELATLAGLSPYYLLKQFQRYYGLPPHAYQIQARVRLAKGKIKQGTRLLDVALDCGFHDQSHLNRHFKKTVGVTPGQFAKEIGRNIIQA | not soluble |
| MTYTGSIRCEGDTWDLASSVGATATMVAAARAMATRAANPLINDQFAEPLVRAVGVDVLTRLASGELTASDIDDPERPNASMVRMAEHHAVRTKFFDEFFMDATRAGIRQVVILASGLDSRAYRLAWPAQTVVYEIDQPQVMEFKTRTLAELGATPTADRRVVTADLRADWPTALGAAGFDPTQPTAWSAEGLLRYLPPEAQDRLLDNVTALSVPDSRFATESIRNFKPHHEERMRERMTILANRWRAYGFDLDMNELVYFGDRNEPASYLSDNGWLLTEIKSQDLLTANGFQPFEDEEVPLPDFFYVSARLQRKHRQYPAHRKPAPSWRHTACPVNELSKSAAYTMTRSDAHQASTTAPPPPGLTG | soluble |
| MGSDKIHHHHHHMITEKVLSYKSPLYGRRTGSLKLRPMNFFTLREFFPSCSWEELVEIYGMTDGIPFYIIQVKPPFWELLEEELKNPISFFKDEVDFLLRYEFSEVTTYKRILEAIALGKTTLKEIKDFTGLRNSDITPYLRNLIEADLIVREVPITEKKTSKKGRYYVLDNFLAFWFRFIYPNLSRIEEGIFNVDEIKGEYPRYLGWVFEKIARQFLIELNKINKLPFKFEKIGRWWYKEEEIDIVALNEREKKGLLVEVKWKTLKEREAREILEVLNKKSKLLGLEGWEKYYGLIAREIKRKEPLIEDGYLVWDLEDFEEIVKQKSREGL | not soluble |
| ALPTIHVVTPTYSRPVQKAELTRMANTLLHVPNLHWLVVEDAPRRTPLTARLLRDTGLNYTHLHVETPRNYKLRGDARDPRIPRGTMQRNLALRWLRETFPRNSSQPGVVYFADDDNTYSLELFEEMRSTRRVSVWPVAFVGGLRYEAPRVNGAGKVVRWKTVFDPHRPFAIDMAGFAVNLRLILQRSQAYFKLRGVKGGYQESSLLRELVTLNDLEPKAANCTKILVWHTRTEKPVLVNEGKKGFTDPSVEI | soluble |
| MGSDKIHHHHHHLPENAASLGCGAWKGDTVSIEAGGMNRRVGEIVGQVLARLRPKAKSLIITVYGDAISHHGGSAWLGSVINLVEPLGLNERIVRTSVFRLSKEAWLSSMQIGRRSYYRLTEMGRRRFEAAHNRIYHYNGKPWDGRWTLAVTNIDGMDAERRDSLRRDLGWLGFGQLASGVMVHPDPDQSAVRQALAEAGVQDRAVMMTAAAEDWVTPEALRDLIHTCWDLERLASDYNEFLDTFRPLWQVLSGNGDLDPQMCFVVRTLLMHGYRRALLRDPMLPDELLPANWPGTSARVLCRNLYRLVQAAAETHVMGMLETAEGPVPEAHPAYYTRFGGLQSAD | not soluble |
| STLYEKLGGTTAVDLAVDKFYERVLQDDRIKHFFADVDMAKQRAHQKAFLTYAFGGTDKYDGRYMREAHKELVENHGLNGEHFDAVAEDLLATLKEMGVPEDLIAEVAAVAGAPAHKRDVLNQ | soluble |
| LNHIYNVAFWAEEIGKIVGLDEKRLAKLYLAGLLHDIGKVYIDERILNKEGRLTLQEYQEMKKHVDYSYNMVKDLMIWDIEDDVALWVVQHHEKFDGSGYPFGLKEEEITPEGRILKIADTLDA | soluble |
| MLGRTDISTFPRLKLGFWGEVTLTFPAVCDAAEIVLPANWADMSVAANNDNAAINTNNVNFLHISSYIRILVTTIPLRCGKTRDNPH | not soluble |
| MGSDKIHHHHHHMDDGYIAEFALYRSLMKNLPWDTYQLFIDVARNGGLTGAVQSTGLSAATLGRRMVELEQKLGRILFHRAQTGYTLTVDGRALLDHLKSFEAAERGIDLWRQQTSQPALVRVTAGTWISWLIAQNLPKLCRSNDRFRLDLHITEERAALAHRETDIGIRAFEPQESNLARVPLGEVAYAAYRHRLADELEGQPWIAVAQDAAISAYLKWPHQHKAEQILITVNRPRSLKDMAVSGMGLAVLPCFVGDSHPQLQRVGDEITELRHRQWLVTNNDDRHRSEIRDCAGRLVTLMRDFSDAFAGRR | not soluble |
| MSLKITDVRVIRFRTHADRWDIGHARLRPAAEVSQTVTCIDTDAGLTGWFFGGGKHGDQDGMSPDEQRLIEGRVRDLLLGVDPFDREAVWKWMWVANLPEVAQSVIDCALWDLAGRAAGQPVYKLMGAARDKVPAYASTYPNIGPPQVYAEHALACRAEGYKAYKIHPHYFWNPDTGLPTKGRPSNIRADIETINLVREAVGPDMVLMYDVWGTYHTIEETIKVGRELERNDFYWFEHPMPEYRVESYRRLCRELSIPILAPEIAAGGVFTRAEWILQGASDMSRMDIRRGGVTGCRKTAVVCEAFGQRCEIHMAGWGNLQVMGATSQDTSEWYEKGLLAPGVDYDAPHPYLERNCDPMDAEGHVALPTAPGLGYEPIWDYIDDNRVPSEGHHHHHH | soluble |
| DAAGVSEVEVEATEIENLKAELSEMEDKFLRARAEIANMSNRNKNERELLVRYRSQDLGKKILPSIDNLERAMAIEVSDEQGESLKKGISMVLESITVALKEEG | not soluble |
| MGSDKIHHHHHHMNILVTGGAGFIGSHVVDKLIENGYGVIVVDNLSSGKVENLNRNALFYEQSIEDEEMMERIFSLHRPEYVFHLAAQASVAISVREPARDAKTNIIGSLVLLEKSIKYGVKKFIFSSTGGAIYGENVKVFPTPETEIPHPISPYGIAKYSTEMYLEFFAREYGLKYTVLRYANVYGPRQDPYGEAGVVAIFTERMLRGEEVHIFGDGEYVRDYVYVDDVVRANLLAMEKGDNEVFNIGTGRGTTVNQLFKLLKEITGYDKEPVYKPPRKGDVRKSILDYTKAKEKLGWEPKVSLEEGLKLTVEYFRKTLE | not soluble |
| MINSVITQMAEELRKASKVALFSHVSPDGDCIGSMLGIGLALEALGKEVAMFNPDPIPRNLSFLPGVDKITQSMPDPLPETLLFVDCADLQRVQLQREDLPADAVILNLDHHISNQNFGRINWVDSQAAASGELAYALVRRLNVELTQEIAANFYTALLTDTGSFKYANTTAKTHQIAGELMETGISLGDIHHFVFDQTPMVKLELLRRGLNQLQFFAEGQLGMMTLRKQDFEESGAEESLSEGLIDHARTVEGVEVAVLLKEVKPDVVRVSLRSNRWFDVNRIADGFGGGGHQRAAGCTLHLSLEEAKQKVRQIIEEELKLGRSHLEHHHHHH | soluble |
